From patent US20240392004A1 (IMMUNOWAKE, published 2024) come the findings set out here.

Numbering of substitutions follows the chain as printed. Names may count otherwise. Where only a bound is given, the exact number is not on record here.

Test in all cases: cell-based or functional assay
In experiment [1] the target is T1, human IL-2 receptor (IL-2Rα, IL-2Rβ, IL-2Rγ) (human, UniProt P01589 22-272; P14784 27-551; P31785 23-369).
T1 sequence (looked up) 1: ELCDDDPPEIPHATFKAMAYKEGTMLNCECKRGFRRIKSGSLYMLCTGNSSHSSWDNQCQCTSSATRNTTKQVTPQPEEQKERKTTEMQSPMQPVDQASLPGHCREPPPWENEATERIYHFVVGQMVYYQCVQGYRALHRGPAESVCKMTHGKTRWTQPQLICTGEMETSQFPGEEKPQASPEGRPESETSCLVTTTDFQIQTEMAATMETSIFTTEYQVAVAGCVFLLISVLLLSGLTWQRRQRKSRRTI
T1 sequence (looked up) 2: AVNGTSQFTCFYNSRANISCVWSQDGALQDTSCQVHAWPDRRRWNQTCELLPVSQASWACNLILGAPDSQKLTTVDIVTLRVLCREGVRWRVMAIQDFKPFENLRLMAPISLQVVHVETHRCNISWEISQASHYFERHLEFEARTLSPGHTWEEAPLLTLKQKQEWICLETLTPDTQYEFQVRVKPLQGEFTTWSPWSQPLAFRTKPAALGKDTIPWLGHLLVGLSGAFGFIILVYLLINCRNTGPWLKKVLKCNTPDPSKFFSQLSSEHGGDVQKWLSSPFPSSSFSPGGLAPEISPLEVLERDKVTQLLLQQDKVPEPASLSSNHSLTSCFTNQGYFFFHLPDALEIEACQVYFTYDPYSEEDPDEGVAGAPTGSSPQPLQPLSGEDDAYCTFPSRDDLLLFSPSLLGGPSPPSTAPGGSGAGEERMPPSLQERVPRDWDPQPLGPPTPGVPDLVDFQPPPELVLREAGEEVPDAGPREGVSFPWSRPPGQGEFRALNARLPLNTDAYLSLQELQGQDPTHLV
T1 sequence (looked up) 3: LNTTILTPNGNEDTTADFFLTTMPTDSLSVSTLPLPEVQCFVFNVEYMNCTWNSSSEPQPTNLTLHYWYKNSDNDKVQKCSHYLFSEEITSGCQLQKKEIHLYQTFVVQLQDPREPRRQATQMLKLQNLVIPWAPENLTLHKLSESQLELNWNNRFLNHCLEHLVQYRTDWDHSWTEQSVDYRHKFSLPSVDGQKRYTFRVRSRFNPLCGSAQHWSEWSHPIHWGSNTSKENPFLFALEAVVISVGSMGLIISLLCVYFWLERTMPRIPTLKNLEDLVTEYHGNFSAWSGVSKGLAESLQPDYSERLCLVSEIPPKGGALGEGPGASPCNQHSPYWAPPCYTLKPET

For experiment [2], the target named is T2, human TIGIT on HEK-Blue reporter cells (human, UniProt Q495A1 22-244).
T2 sequence (looked up): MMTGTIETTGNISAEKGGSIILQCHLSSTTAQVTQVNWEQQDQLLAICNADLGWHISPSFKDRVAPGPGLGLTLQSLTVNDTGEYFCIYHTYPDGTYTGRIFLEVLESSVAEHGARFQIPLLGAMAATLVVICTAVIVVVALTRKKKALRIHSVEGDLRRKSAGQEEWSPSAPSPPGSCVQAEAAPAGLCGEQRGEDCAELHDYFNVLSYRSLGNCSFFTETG

The target in experiment [3] is T3, human IL-12 receptor complex (IL-12Rβ1 and IL-12Rβ2) (human, UniProt P42701 24-662; Q99665 24-862).
T3 sequence (Q99665 24-862, chain 2 of 2, other chains not shown): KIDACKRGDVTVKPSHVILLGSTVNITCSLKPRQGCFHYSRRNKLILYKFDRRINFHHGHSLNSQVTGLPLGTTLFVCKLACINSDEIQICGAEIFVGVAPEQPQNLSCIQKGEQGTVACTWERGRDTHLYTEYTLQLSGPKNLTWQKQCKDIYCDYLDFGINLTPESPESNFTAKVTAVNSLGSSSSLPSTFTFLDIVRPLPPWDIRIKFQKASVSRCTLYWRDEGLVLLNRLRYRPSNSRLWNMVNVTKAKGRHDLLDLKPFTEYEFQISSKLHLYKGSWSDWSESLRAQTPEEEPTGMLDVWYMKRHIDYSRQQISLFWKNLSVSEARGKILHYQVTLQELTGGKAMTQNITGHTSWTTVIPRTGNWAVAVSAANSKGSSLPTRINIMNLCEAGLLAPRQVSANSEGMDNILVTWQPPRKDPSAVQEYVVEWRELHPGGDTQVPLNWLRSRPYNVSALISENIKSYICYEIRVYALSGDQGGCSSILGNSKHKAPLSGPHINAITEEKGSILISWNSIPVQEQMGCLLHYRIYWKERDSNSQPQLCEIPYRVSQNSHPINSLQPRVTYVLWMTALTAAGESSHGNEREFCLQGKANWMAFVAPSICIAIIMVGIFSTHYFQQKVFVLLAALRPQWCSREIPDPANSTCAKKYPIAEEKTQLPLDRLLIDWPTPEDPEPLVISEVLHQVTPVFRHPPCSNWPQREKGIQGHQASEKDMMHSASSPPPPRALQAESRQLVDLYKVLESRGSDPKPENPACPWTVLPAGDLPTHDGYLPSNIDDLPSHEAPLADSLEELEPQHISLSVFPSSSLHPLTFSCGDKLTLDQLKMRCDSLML
The target of experiment [4] is T3, human IL-12 receptor complex (IL-12Rβ1 …). The source holds these as a separate data set.
Experiment [5] has as its target human PD-1 on cells (HEK-PD-1 reporter cells; activated PBMC) (human, UniProt Q15116 25-288).

Sequence of human PD-1 on cells (HEK-PD-1 reporter cells; activated PBMC) (Q15116 25-288): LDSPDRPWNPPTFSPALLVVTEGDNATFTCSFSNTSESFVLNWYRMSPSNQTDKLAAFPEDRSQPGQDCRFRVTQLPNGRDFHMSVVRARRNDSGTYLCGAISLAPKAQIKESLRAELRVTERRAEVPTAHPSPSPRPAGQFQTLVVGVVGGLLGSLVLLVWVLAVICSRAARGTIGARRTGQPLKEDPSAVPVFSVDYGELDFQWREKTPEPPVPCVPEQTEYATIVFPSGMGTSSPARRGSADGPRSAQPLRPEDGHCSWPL

B1: CD155-Fc/IL-12(E59A/F60A) (IL-12 at C'), printed in Table 21 as IL-12(E59A/F60A)/CD155-Fc (Fc fusion)
chain 1: WPPPGTGDVVVQAPTQVPGFLGDSVTLPCYLQVPNMEVTHVSQLTWARHGESGSMAVFHQTQGPSYSESKRLEFVAARLGAELRNASLRMFGLRVEDEGNYTCLFVTFPQGSRSVDIWLRVLAKPQNTAEVQKVQLTGEPVPMARCVSTGGRPPAQITWHSDLGGMPNTSQVPGFLSGTVTVTSLWILVPSSQVDGKNVTCKVEHESFEKPQLLTVNLTVYYPPEVSISGYDNNWYLGQNEATLTCDARSNPEPTGYNWSTTMGPLPPFAVAQGAQLLIRPVDKPINTTLICNVTNALGARQAELTVQVKEGPPSEHSGISRNGGGGSGGGDKTHTCPPCPAPEDEGGPSVFLFPPKPKDTLMISRTPEVTCVVVDVSHEDPEVKFNWYVDGVEVHNAKTKPREEQYNSTYRVVSVLTVLHQDWLNGKEYKCKVSNKALPAPIEKTISKAKGQPREPQVYVYPPSREEMTKNQVSLTCLVKGFYPSDIAVEWESNGQPENNYKTTPPVLDEDGSFALVSKLTVDKSRWQQGNVFSCSVMHEALHNHYTQKSLSLSPGKGGGGSGGGIWELKKDVYVVELDWYPDAPGEMVVLTCDTPEEDGITWTLDQSSEVLGSGKTLTIQVKAAGDAGQYTCHKGGEVLSHSLLLLHKKEDGIWSTDILKDQKEPKNKTFLRCEAKNYSGRFTCWWLTTISTDLTFSVKSSRGSSDPQGVTCGAATLSAERVRGDNKEYEYSVECQEDSACPAAEESLPIEVMVDAVHKLKYENYTSSFFIRDIIKPDPPKNLQLKPLKNSRQVEVSWEYPDTWSTPHSYFSLTFCVQVQGKSKREKKDRVFTDKTSATVICRKNASISVRAQDRYYSSSWSEWASVPCSGGGGSGGGSGGGGSRNLPVATPDPGMFPCLHHSQNLLRAVSNMLQKARQTLEFYPCTSEEIDHEDITKDKTSTVEACLPLELTKNESCLNSRETSFITNGSCLASRKTSFMMALCLSSIYEDLKMYQVEFKTMNAKLLMDPKRQIFLDQNMLAVIDELMQALNFNSETVPQKSSLEEPDFYKTKIKLCILLHAFRIRAVTIDRVMSYLNAS
chain 2: WPPPGTGDVVVQAPTQVPGFLGDSVTLPCYLQVPNMEVTHVSQLTWARHGESGSMAVFHQTQGPSYSESKRLEFVAARLGAELRNASLRMFGLRVEDEGNYTCLFVTFPQGSRSVDIWLRVLAKPQNTAEVQKVQLTGEPVPMARCVSTGGRPPAQITWHSDLGGMPNTSQVPGFLSGTVTVTSLWILVPSSQVDGKNVTCKVEHESFEKPQLLTVNLTVYYPPEVSISGYDNNWYLGQNEATLTCDARSNPEPTGYNWSTTMGPLPPFAVAQGAQLLIRPVDKPINTTLICNVTNALGARQAELTVQVKEGPPSEHSGISRNGGGGSGGGDKTHTCPPCPAPEKKGGPSVFLFPPKPKDTLMISRTPEVTCVVVDVSHEDPEVKFNWYVDGVEVHNAKTKPREEQYNSTYRVVSVLTVLHQDWLNGKEYKCKVSNKALPAPIEKTISKAKGQPREPQVYVLPPSREEMTKNQVSLLCLVKGFYPSDIAVEWESNGQPENRYMTWPPVLDSDGSFFLYSKLTVDKSRWQQGNVFSCSVMHEALHNHYTQKSLSLSPGK
B1: the “IL-2 signal transduction, HEK-IL-2” value in experiment [1] was less than 0.1%. In addition, in experiment [2], the “IL-2 signal transduction, HEK-IL-2-TIGIT” value was less than 0.1% and the “IL-12 signal transduction, HEK-IL-12-TIGIT” value came out at 35%. For the same molecule, the “IL-12 signal transduction, HEK-IL-12” value in experiment [3] was 2%.

B2: IL-2(L18R/Q22E/R38D/K43E/E61R/Q126T/S130R)/CD155-Fc/IL-12(E59A/F60A) (Fc fusion)
chain 1: B1 chain 1
chain 2: WPPPGTGDVVVQAPTQVPGFLGDSVTLPCYLQVPNMEVTHVSQLTWARHGESGSMAVFHQTQGPSYSESKRLEFVAARLGAELRNASLRMFGLRVEDEGNYTCLFVTFPQGSRSVDIWLRVLAKPQNTAEVQKVQLTGEPVPMARCVSTGGRPPAQITWHSDLGGMPNTSQVPGFLSGTVTVTSLWILVPSSQVDGKNVTCKVEHESFEKPQLLTVNLTVYYPPEVSISGYDNNWYLGQNEATLTCDARSNPEPTGYNWSTTMGPLPPFAVAQGAQLLIRPVDKPINTTLICNVTNALGARQAELTVQVKEGPPSEHSGISRNGGGSGAPTSSSTKKTQLQLEHLRLDLEMILNGINNYKNPKLTDMLTFEFYMPKKATELKHLQCLERELKPLEEVLNLAQSKNFHLRPRDLISNINVIVLELKGSETTFMCEYADETATIVEFLNRWITFCTSIIRTLTGGGGSGGGDKTHTCPPCPAPEKKGGPSVFLFPPKPKDTLMISRTPEVTCVVVDVSHEDPEVKFNWYVDGVEVHNAKTKPREEQYNSTYRVVSVLTVLHQDWLNGKEYKCKVSNKALPAPIEKTISKAKGQPREPQVYVLPPSREEMTKNQVSLLCLVKGFYPSDIAVEWESNGQPENRYMTWPPVLDSDGSFFLYSKLTVDKSRWQQGNVFSCSVMHEALHNHYTQKSLSLSPGK
In the case of B2, the “IL-2 signal transduction, HEK-IL-2” value in experiment [1] was less than 0.1%. Further, in experiment [2], the “IL-2 signal transduction, HEK-IL-2-TIGIT” value was less than 0.1% and the “IL-12 signal transduction, HEK-IL-12-TIGIT” value is 24%. Also, the “IL-12 signal transduction, HEK-IL-12” value in experiment [3] stood at 3%.

B3: IL-2(R38D/K43E/E61R/Q126T)/CD155-Fc/IL-12(E59A/F60A) (Fc fusion)
chain 1: B1 chain 1
chain 2: B2 chain 2 with R346L, E350Q, R458S
As to B3, the “IL-2 signal transduction, HEK-IL-2” value in experiment [1] is 3%. Moreover, in experiment [2], the “IL-2 signal transduction, HEK-IL-2-TIGIT” value stood at 28% and the “IL-12 signal transduction, HEK-IL-12-TIGIT” value was 32%. Further, in experiment [3], the “IL-12 signal transduction, HEK-IL-12” value is 2%.

B4: IL-2(L18R/Q22E/R38D/K43E/E61R/Q126T)/CD155-Fc/IL-12(E59A/F60A) (Fc fusion)
chain 1: B1 chain 1
chain 2: B2 chain 2 with R458S
Turning to B4, the “IL-2 signal transduction, HEK-IL-2” value in experiment [1] was 5%. Moreover, in experiment [2], the “IL-2 signal transduction, HEK-IL-2-TIGIT” value came out at 18% and the “IL-12 signal transduction, HEK-IL-12-TIGIT” value stood at 29%. Further, the “IL-12 signal transduction, HEK-IL-12” value in experiment [3] is less than 0.2%.

B5: IL-2(L18R/Q22E/R38D/K43E/E61R)/CD155-Fc/IL-12(E59A/F60A) (Fc fusion)
chain 1: B1 chain 1
chain 2: B2 chain 2 with T454Q, R458S
Regarding B5, the “IL-2 signal transduction, HEK-IL-2” value in experiment [1] is 15%. In addition, in experiment [2], the “IL-2 signal transduction, HEK-IL-2-TIGIT” value was determined as 81% and the “IL-12 signal transduction, HEK-IL-12-TIGIT” value was determined as 42%. Further, in experiment [3], the “IL-12 signal transduction, HEK-IL-12” value turned out to be 1%.

B6: IL-12(E59A/F60A)/anti-PD-1(N99A) (antibody)
light: not shown
heavy: not shown
heavy (part 1 of 2): QVQLVESGGGVVQPGRSLRLDCKASGITFSNSGMHWVRQAPGKGLEWVAVIWYDGSKRYYADSVKGRFTISRDNSKNTLFLQMNSLRAEDTAVYYCATADDYWGQGTLVTVSSAS
heavy (part 2 of 2): EPKSCDKTHTCPPCPAPEKKGGPSVFLFPPKPKDTLMISRTPEVTCVVVDVSHEDPEVKFNWYVDGVEVHNAKTKPREEQYNSTYRVVSVLTVLHQDWLNGKEYKCKVSNKALPAPIEKTISKAKGQPREPQVYVLPPSREEMTKNQVSLLCLVKGFYPSDIAVEWESNGQPENRYMTWPPVLDSDGSFFLYSKLTVDKSRWQQGNVFSCSVMHEALHNHYTQKSLSLSPGK
For B6, the “IL-12 signal transduction, HEK IL-12” value in experiment [4] is less than 0.2%. In experiment [5], the “IFN-γ release, activated PBMC” value amounted to 12 ng/mL; the “IL-12 signal transduction, HEK-IL-12-PD-1 (high)” value is 3%; the “IL-12 signal transduction, HEK-IL-12-PD-1 (low)” value was less than 0.2%.

B7: IL-12(E59A/F60A)/anti-PD-1(N99M) (antibody)
light: not shown
heavy: not shown
heavy (part 1 of 2): B6 heavy (part 1 of 2) with A99M
heavy (part 2 of 2): B6 heavy (part 2 of 2)
Regarding B7, the “IL-12 signal transduction, HEK IL-12” value in experiment [4] was less than 0.2%. In experiment [5], the “IFN-γ release, activated PBMC” value was found to be 13 ng/mL; the “IL-12 signal transduction, HEK-IL-12-PD-1 (high)” value was less than 0.2%; the “IL-12 signal transduction, HEK-IL-12-PD-1 (low)” value was less than 0.2%.
